Assay results taken from the supplement of paper PMC9233669.
This sample holds only a part of the variants without activity.

Key:
biotinyl-Leu-oxazolone = assay: self-aminoacylation, catalytic enhancement (BLO) (fold over background); higher = more active; k-Seq, kA / k0A0; sequences stand for … in GGGAAUGGAUCCACAUCUACGAAUUC…UUCACUGCAGACUUGACGAAGCUG
Summary of the method: (§1)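 Mutagenized RNA pools with a 21-nt variable region (0.43 μM) reacted with each biotinyl-aminoacyl-oxazolone at 2–1250 μM. Reactions ran in 50 μL HEPES/NaCl/KCl/MgCl2/CaCl2 buffer with 5% acetonitrile, pH 6.9–7.0, for 90 minutes at room temperature. Streptavidin-captured RNA was quantified by triplicate qPCR and Illumina sequencing, and per-sequence fraction reacted was fit to a pseudo-first-order model with 1000 bootstraps. Catalytic enhancement is median kA divided by the uncatalyzed rate, the low-activity peak of a bimodal Gaussian fit.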

biotinyl-Ile-oxazolone = assay: self-aminoacylation, catalytic enhancement (BIO) (fold over background); higher = more active; k-Seq, kA / k0A0; sequences stand for … in GGGAAUGGAUCCACAUCUACGAAUUC…UUCACUGCAGACUUGACGAAGCUG
Summary of the method: as §1

biotinyl-Trp-oxazolone = assay: self-aminoacylation, catalytic enhancement (BWO) (fold over background); higher = more active; k-Seq, kA / k0A0; sequences stand for … in GGGAAUGGAUCCACAUCUACGAAUUC…UUCACUGCAGACUUGACGAAGCUG
Summary of the method: as §1

biotinyl-Phe-oxazolone = assay: self-aminoacylation, catalytic enhancement (BFO) (fold over background); higher = more active; k-Seq, kA / k0A0; sequences stand for … in GGGAAUGGAUCCACAUCUACGAAUUC…UUCACUGCAGACUUGACGAAGCUG
Summary of the method: as §1

biotinyl-Val-oxazolone = assay: self-aminoacylation, catalytic enhancement (BVO) (fold over background); higher = more active; k-Seq, kA / k0A0; sequences stand for … in GGGAAUGGAUCCACAUCUACGAAUUC…UUCACUGCAGACUUGACGAAGCUG
Summary of the method: as §1

biotinyl-Met-oxazolone = assay: self-aminoacylation, catalytic enhancement (BMO) (fold over background); higher = more active; k-Seq, kA / k0A0; sequences stand for … in GGGAAUGGAUCCACAUCUACGAAUUC…UUCACUGCAGACUUGACGAAGCUG
Summary of the method: as §1

In the case of “AUUCAACUAGGUCAUCGGCUG [Fam2.2 aminoacylation ribozyme variant]”, the self-aminoacylation (biotinyl-Leu-oxazolone) is reported as 1.46, the self-aminoacylation (biotinyl-Ile-oxazolone) is reported as 1.57 and the self-aminoacylation (biotinyl-Trp-oxazolone) is reported as 1.45. It also gave a self-aminoacylation (biotinyl-Phe-oxazolone) of 5.81, a self-aminoacylation (biotinyl-Val-oxazolone) of 1.75 and a self-aminoacylation (biotinyl-Met-oxazolone) of 1.91.
For “AUUCAACUAGGUCAUCGGGAG [Fam2.2 aminoacylation ribozyme variant]”, the self-aminoacylation (biotinyl-Leu-oxazolone) was 0.899, the self-aminoacylation (biotinyl-Ile-oxazolone) was 0.943 and the self-aminoacylation (biotinyl-Trp-oxazolone) was 1.05. It also gave a self-aminoacylation (biotinyl-Phe-oxazolone) of 0.48, a self-aminoacylation (biotinyl-Val-oxazolone) of 0.961 and a self-aminoacylation (biotinyl-Met-oxazolone) of 1.23.
For “AUUCAACUAGGUCAUCUGGUG [Fam2.2 aminoacylation ribozyme variant]”, the self-aminoacylation (biotinyl-Leu-oxazolone) was 3.55, the self-aminoacylation (biotinyl-Ile-oxazolone) was 1.9 and the self-aminoacylation (biotinyl-Trp-oxazolone) was 2.54. The self-aminoacylation (biotinyl-Phe-oxazolone) was 17.7, the self-aminoacylation (biotinyl-Val-oxazolone) was 1.85 and the self-aminoacylation (biotinyl-Met-oxazolone) was 2.55.
“AUUCAACUAGGUCAUUGGGUG [Fam2.2 aminoacylation ribozyme variant]” was tested, and the self-aminoacylation (biotinyl-Leu-oxazolone) was 4.71, the self-aminoacylation (biotinyl-Ile-oxazolone) was 2.3 and the self-aminoacylation (biotinyl-Trp-oxazolone) was 3.66. It also gave a self-aminoacylation (biotinyl-Phe-oxazolone) of 23.7, a self-aminoacylation (biotinyl-Val-oxazolone) of 2.19 and a self-aminoacylation (biotinyl-Met-oxazolone) of 3.46.
“AUUCAACUAUGUCAUCGGGUG [Fam2.2 aminoacylation ribozyme variant]” showed a self-aminoacylation (biotinyl-Leu-oxazolone) of 6.15, a self-aminoacylation (biotinyl-Ile-oxazolone) of 3.08 and a self-aminoacylation (biotinyl-Trp-oxazolone) of 4.57. It also gave a self-aminoacylation (biotinyl-Phe-oxazolone) of 33.1, a self-aminoacylation (biotinyl-Val-oxazolone) of 2.45 and a self-aminoacylation (biotinyl-Met-oxazolone) of 4.78.
“AUUCACAAAGGUCAUCGGGUG [Fam2.2 aminoacylation ribozyme variant]” showed a self-aminoacylation (biotinyl-Leu-oxazolone) of 12.2, a self-aminoacylation (biotinyl-Ile-oxazolone) of 5.84 and a self-aminoacylation (biotinyl-Trp-oxazolone) of 8.7. It also gave a self-aminoacylation (biotinyl-Phe-oxazolone) of 84.3, a self-aminoacylation (biotinyl-Val-oxazolone) of 5.83 and a self-aminoacylation (biotinyl-Met-oxazolone) of 9.76.
For “AUUCACACAGGUCAUCGGGUG [Fam2.2 aminoacylation ribozyme variant]”, the self-aminoacylation (biotinyl-Leu-oxazolone) was 7.14, the self-aminoacylation (biotinyl-Ile-oxazolone) was 4.03 and the self-aminoacylation (biotinyl-Trp-oxazolone) was 5.26. It also gave a self-aminoacylation (biotinyl-Phe-oxazolone) of 39.6, a self-aminoacylation (biotinyl-Val-oxazolone) of 4.47 and a self-aminoacylation (biotinyl-Met-oxazolone) of 5.6.
With “AUUCACAUAGGCCAUCGGGUG [Fam2.2 aminoacylation ribozyme variant]” the self-aminoacylation (biotinyl-Leu-oxazolone) was 5.85, the self-aminoacylation (biotinyl-Ile-oxazolone) was 3.23 and the self-aminoacylation (biotinyl-Trp-oxazolone) was 4.23. The self-aminoacylation (biotinyl-Phe-oxazolone) was 34.7, the self-aminoacylation (biotinyl-Val-oxazolone) was 3.41 and the self-aminoacylation (biotinyl-Met-oxazolone) was 4.86.
“AUUCACAUAGGUCAUCGGCUG [Fam2.2 aminoacylation ribozyme variant]” showed a self-aminoacylation (biotinyl-Leu-oxazolone) of 1.61, a self-aminoacylation (biotinyl-Ile-oxazolone) of 1.72 and a self-aminoacylation (biotinyl-Trp-oxazolone) of 1.89. For the same sequence, the self-aminoacylation (biotinyl-Phe-oxazolone) was 7.68, the self-aminoacylation (biotinyl-Val-oxazolone) was 1.78 and the self-aminoacylation (biotinyl-Met-oxazolone) was 1.64.
With “AUUCACAUAGGUCAUCGGGAG [Fam2.2 aminoacylation ribozyme variant]” the self-aminoacylation (biotinyl-Leu-oxazolone) was 0.985, the self-aminoacylation (biotinyl-Ile-oxazolone) was 1 and the self-aminoacylation (biotinyl-Trp-oxazolone) was 1.76. The self-aminoacylation (biotinyl-Phe-oxazolone) was 0.953, the self-aminoacylation (biotinyl-Val-oxazolone) was 1.19 and the self-aminoacylation (biotinyl-Met-oxazolone) was 1.13.
“AUUCACAUUGGUCAUCGGGUG [Fam2.2 aminoacylation ribozyme variant]” was tested, and the self-aminoacylation (biotinyl-Leu-oxazolone) was 12.8, the self-aminoacylation (biotinyl-Ile-oxazolone) was 6.31 and the self-aminoacylation (biotinyl-Trp-oxazolone) was 8.88. The self-aminoacylation (biotinyl-Phe-oxazolone) was 82.8, the self-aminoacylation (biotinyl-Val-oxazolone) was 5.97 and the self-aminoacylation (biotinyl-Met-oxazolone) was 10.1.
“AUUCACCAAGAUCAUCGGGUG [Fam2.2 aminoacylation ribozyme variant]” gave a self-aminoacylation (biotinyl-Leu-oxazolone) of 5.42, a self-aminoacylation (biotinyl-Ile-oxazolone) of 3.1 and a self-aminoacylation (biotinyl-Trp-oxazolone) of 4.68. The self-aminoacylation (biotinyl-Phe-oxazolone) was 33.2, the self-aminoacylation (biotinyl-Val-oxazolone) was 3.21 and the self-aminoacylation (biotinyl-Met-oxazolone) was 4.4.
“AUUCACCAAGGGCAUCGGGUG [Fam2.2 aminoacylation ribozyme variant]” gave a self-aminoacylation (biotinyl-Leu-oxazolone) of 6.01, a self-aminoacylation (biotinyl-Ile-oxazolone) of 4.37 and a self-aminoacylation (biotinyl-Trp-oxazolone) of 4.74. The self-aminoacylation (biotinyl-Phe-oxazolone) was 35.1, the self-aminoacylation (biotinyl-Val-oxazolone) was 5.01 and the self-aminoacylation (biotinyl-Met-oxazolone) was 5.2.
“AUUCACCAAGGUAAUCGGGUG [Fam2.2 aminoacylation ribozyme variant]” was tested, and the self-aminoacylation (biotinyl-Leu-oxazolone) was 7.71, the self-aminoacylation (biotinyl-Ile-oxazolone) was 3.5 and the self-aminoacylation (biotinyl-Trp-oxazolone) was 4.8. The self-aminoacylation (biotinyl-Phe-oxazolone) was 42.2, the self-aminoacylation (biotinyl-Val-oxazolone) was 3.19 and the self-aminoacylation (biotinyl-Met-oxazolone) was 5.69.
“AUUCACCAAGGUCAGCGGGUG [Fam2.2 aminoacylation ribozyme variant]” showed a self-aminoacylation (biotinyl-Leu-oxazolone) of 5.4, a self-aminoacylation (biotinyl-Ile-oxazolone) of 4.01 and a self-aminoacylation (biotinyl-Trp-oxazolone) of 4.65. For the same sequence, the self-aminoacylation (biotinyl-Phe-oxazolone) was 29.3, the self-aminoacylation (biotinyl-Val-oxazolone) was 3.95 and the self-aminoacylation (biotinyl-Met-oxazolone) was 4.83.
“AUUCACCAAGGUCAUCGGAUG [Fam2.2 aminoacylation ribozyme variant]” was tested, and the self-aminoacylation (biotinyl-Leu-oxazolone) was 0.794, the self-aminoacylation (biotinyl-Ile-oxazolone) was 1.09 and the self-aminoacylation (biotinyl-Trp-oxazolone) was 0.726. For the same sequence, the self-aminoacylation (biotinyl-Phe-oxazolone) was 1.12, the self-aminoacylation (biotinyl-Val-oxazolone) was 1.17 and the self-aminoacylation (biotinyl-Met-oxazolone) was 0.703.
Sequence “AUUCACCAAGGUCAUCGGGAG [Fam2.2 aminoacylation ribozyme variant]” has a self-aminoacylation (biotinyl-Leu-oxazolone) of 1.57, a self-aminoacylation (biotinyl-Ile-oxazolone) of 1.36 and a self-aminoacylation (biotinyl-Trp-oxazolone) of 1.27. It also gave a self-aminoacylation (biotinyl-Phe-oxazolone) of 4.38, a self-aminoacylation (biotinyl-Val-oxazolone) of 1.11 and a self-aminoacylation (biotinyl-Met-oxazolone) of 1.19.
In the case of “AUUCACCAAGGUCAUCGGGUG [Fam2.2 aminoacylation ribozyme variant]”, the self-aminoacylation (biotinyl-Leu-oxazolone) is reported as 12.3, the self-aminoacylation (biotinyl-Ile-oxazolone) is reported as 5.52 and the self-aminoacylation (biotinyl-Trp-oxazolone) is reported as 8.61. The self-aminoacylation (biotinyl-Phe-oxazolone) was 75.8, the self-aminoacylation (biotinyl-Val-oxazolone) was 5.71 and the self-aminoacylation (biotinyl-Met-oxazolone) was 9.68.
“AUUCACCAAGGUGAUCGGGUG [Fam2.2 aminoacylation ribozyme variant]” gave a self-aminoacylation (biotinyl-Leu-oxazolone) of 4.13, a self-aminoacylation (biotinyl-Ile-oxazolone) of 2.63 and a self-aminoacylation (biotinyl-Trp-oxazolone) of 4.15. It also gave a self-aminoacylation (biotinyl-Phe-oxazolone) of 17.6, a self-aminoacylation (biotinyl-Val-oxazolone) of 2.98 and a self-aminoacylation (biotinyl-Met-oxazolone) of 3.28.
In the case of “AUUCACCAAGUUCAUCGGGUG [Fam2.2 aminoacylation ribozyme variant]”, the self-aminoacylation (biotinyl-Leu-oxazolone) is reported as 4.31, the self-aminoacylation (biotinyl-Ile-oxazolone) is reported as 3.06 and the self-aminoacylation (biotinyl-Trp-oxazolone) is reported as 4.14. It also gave a self-aminoacylation (biotinyl-Phe-oxazolone) of 19.8, a self-aminoacylation (biotinyl-Val-oxazolone) of 2.89 and a self-aminoacylation (biotinyl-Met-oxazolone) of 3.58.
Work on “AUUCACCAGGGUCAUCGGGUG [Fam2.2 aminoacylation ribozyme variant]” yielded a self-aminoacylation (biotinyl-Leu-oxazolone) of 9.42, a self-aminoacylation (biotinyl-Ile-oxazolone) of 4.8 and a self-aminoacylation (biotinyl-Trp-oxazolone) of 6.99. It also gave a self-aminoacylation (biotinyl-Phe-oxazolone) of 57.5, a self-aminoacylation (biotinyl-Val-oxazolone) of 5.45 and a self-aminoacylation (biotinyl-Met-oxazolone) of 7.51.
Sequence “AUUCACCCACGUCAUCGGGUG [Fam2.2 aminoacylation ribozyme variant]” has a self-aminoacylation (biotinyl-Leu-oxazolone) of 6.88, a self-aminoacylation (biotinyl-Ile-oxazolone) of 2.76 and a self-aminoacylation (biotinyl-Trp-oxazolone) of 3.99. The self-aminoacylation (biotinyl-Phe-oxazolone) was 37.1, the self-aminoacylation (biotinyl-Val-oxazolone) was 3.23 and the self-aminoacylation (biotinyl-Met-oxazolone) was 3.91.
With “AUUCACCCAGGUCAUCCGGUG [Fam2.2 aminoacylation ribozyme variant]” the self-aminoacylation (biotinyl-Leu-oxazolone) was 12.7, the self-aminoacylation (biotinyl-Ile-oxazolone) was 6.38 and the self-aminoacylation (biotinyl-Trp-oxazolone) was 8.51. The self-aminoacylation (biotinyl-Phe-oxazolone) was 90.7, the self-aminoacylation (biotinyl-Val-oxazolone) was 6.29 and the self-aminoacylation (biotinyl-Met-oxazolone) was 8.64.
